{"source": "paper PMC4130151", "target": "Fibronectin (UniProt P02751)", "sequence (P02751 32-2477)": "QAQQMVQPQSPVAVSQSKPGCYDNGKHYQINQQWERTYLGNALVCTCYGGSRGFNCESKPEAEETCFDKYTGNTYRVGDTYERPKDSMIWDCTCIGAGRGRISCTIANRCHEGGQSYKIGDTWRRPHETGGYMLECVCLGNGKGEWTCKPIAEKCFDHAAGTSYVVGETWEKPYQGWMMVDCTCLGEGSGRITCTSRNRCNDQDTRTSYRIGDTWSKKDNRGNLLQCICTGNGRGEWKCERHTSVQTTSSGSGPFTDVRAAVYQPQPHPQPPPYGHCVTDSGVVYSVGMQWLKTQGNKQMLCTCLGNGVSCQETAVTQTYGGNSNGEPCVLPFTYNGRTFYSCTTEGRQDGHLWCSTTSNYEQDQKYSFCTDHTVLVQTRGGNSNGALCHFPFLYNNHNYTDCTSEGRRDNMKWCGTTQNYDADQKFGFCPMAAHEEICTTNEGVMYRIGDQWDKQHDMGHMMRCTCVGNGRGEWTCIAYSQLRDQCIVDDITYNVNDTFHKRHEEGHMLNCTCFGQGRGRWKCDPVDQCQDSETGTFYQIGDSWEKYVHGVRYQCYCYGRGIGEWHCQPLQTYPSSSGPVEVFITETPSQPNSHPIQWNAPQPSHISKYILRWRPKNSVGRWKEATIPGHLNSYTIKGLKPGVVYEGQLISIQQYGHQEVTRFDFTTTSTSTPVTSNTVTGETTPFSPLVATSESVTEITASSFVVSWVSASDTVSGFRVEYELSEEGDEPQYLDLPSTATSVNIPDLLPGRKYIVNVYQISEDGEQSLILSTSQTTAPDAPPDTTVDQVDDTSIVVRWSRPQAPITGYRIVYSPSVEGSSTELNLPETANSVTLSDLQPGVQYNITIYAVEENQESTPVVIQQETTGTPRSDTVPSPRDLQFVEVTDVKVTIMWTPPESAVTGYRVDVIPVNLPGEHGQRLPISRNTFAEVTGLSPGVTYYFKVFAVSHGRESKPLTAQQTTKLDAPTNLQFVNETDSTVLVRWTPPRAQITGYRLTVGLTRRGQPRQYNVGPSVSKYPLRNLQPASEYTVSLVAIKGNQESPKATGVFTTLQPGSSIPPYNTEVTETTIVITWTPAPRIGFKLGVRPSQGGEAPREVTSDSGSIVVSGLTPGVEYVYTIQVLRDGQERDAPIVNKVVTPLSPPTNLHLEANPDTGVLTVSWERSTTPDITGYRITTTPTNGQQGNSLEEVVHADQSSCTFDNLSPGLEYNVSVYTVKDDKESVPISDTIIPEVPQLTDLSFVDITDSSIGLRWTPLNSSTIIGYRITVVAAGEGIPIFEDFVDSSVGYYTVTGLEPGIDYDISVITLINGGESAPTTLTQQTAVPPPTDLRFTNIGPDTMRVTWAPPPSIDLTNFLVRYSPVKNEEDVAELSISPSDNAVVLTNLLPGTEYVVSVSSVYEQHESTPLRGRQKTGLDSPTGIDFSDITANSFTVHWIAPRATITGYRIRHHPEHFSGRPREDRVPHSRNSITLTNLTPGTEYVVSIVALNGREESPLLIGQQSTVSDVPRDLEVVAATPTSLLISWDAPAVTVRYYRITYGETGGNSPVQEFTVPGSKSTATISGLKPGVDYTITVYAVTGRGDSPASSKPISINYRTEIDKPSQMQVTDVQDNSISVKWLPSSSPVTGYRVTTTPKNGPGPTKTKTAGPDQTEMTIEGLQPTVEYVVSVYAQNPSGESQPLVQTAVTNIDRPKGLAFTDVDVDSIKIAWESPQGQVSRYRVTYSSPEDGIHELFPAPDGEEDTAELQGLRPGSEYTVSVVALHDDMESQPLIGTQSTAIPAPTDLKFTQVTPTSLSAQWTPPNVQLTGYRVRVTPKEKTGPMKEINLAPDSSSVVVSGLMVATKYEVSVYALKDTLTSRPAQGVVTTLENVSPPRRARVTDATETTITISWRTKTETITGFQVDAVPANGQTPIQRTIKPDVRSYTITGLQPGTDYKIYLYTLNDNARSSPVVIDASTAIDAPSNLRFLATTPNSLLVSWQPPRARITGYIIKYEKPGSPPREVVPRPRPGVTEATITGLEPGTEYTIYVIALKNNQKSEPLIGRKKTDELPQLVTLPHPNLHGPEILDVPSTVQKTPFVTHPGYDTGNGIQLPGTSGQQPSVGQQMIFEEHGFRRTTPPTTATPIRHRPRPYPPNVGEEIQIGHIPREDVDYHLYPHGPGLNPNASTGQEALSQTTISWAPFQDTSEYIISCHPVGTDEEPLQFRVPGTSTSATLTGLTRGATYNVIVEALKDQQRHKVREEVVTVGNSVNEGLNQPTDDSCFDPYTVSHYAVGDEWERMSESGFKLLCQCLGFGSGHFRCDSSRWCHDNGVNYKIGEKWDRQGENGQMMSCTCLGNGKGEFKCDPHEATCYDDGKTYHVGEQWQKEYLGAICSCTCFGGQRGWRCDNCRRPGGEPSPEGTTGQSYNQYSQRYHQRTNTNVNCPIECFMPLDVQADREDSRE", "assay": "SPR; BIAcore T100; FN covalently immobilised on CM5 chip; EF-Tu 0-10.0 μM injected in 10 mM HEPES, 150 mM NaCl, 3 mM EDTA, 0.005% P20, pH 7.4, 30 μL/min, 25°C; KD from equilibrium", "note": "pKd: −log10 of the molar value."}
{"substance": "Mycobacterium avium subsp. paratuberculosis elongation factor Tu (from UniProt Q73SD1 1-396) (natural protein)", "values": [{"measurement": "pKd", "value": 5.51}]}
